{
  "source": "patent US20250250357A1",
  "key": {"[1]": {"molecular_target": "human MSLN-R3-3 polypeptide (human)", "test": "ELISA, coated antigen, antibody 1 nM"}, "[2]": {"molecular_target": "human MSLN-R3-3 polypeptide (human)", "test": "ELISA, coated antigen, antibody 0.1 nM"}, "[3]": {"molecular_target": "human MSLN-R3-3 polypeptide (human)", "test": "ELISA, coated antigen, antibody 0.01 nM"}, "[4]": {"molecular_target": "human MSLN-R3-3 polypeptide (human)", "test": "ELISA, coated antigen, antibody 0.001 nM"}, "[5]": {"molecular_target": "human MSLN-R3-3 polypeptide (human)", "test": "ELISA, coated antigen, antibody 0.0001 nM"}, "[6]": {"molecular_target": "human MSLN-R3-3 polypeptide (human)", "test": "ELISA, coated antigen, no antibody (blank)"}, "[7]": {"molecular_target": "human MSLN-R3-rFc protein (human) (UniProt Q13421)", "sequence (Q13421 495-606)": "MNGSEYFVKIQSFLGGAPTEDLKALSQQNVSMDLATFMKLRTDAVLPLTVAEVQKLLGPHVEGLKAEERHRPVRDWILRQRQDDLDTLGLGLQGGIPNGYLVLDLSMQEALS", "test": "ELISA, antibody 1 nM"}, "[8]": {"molecular_target": "human MSLN-R3-rFc protein (human) (UniProt Q13421)", "test": "ELISA, antibody 4 nM"}, "[9]": {"molecular_target": "human MSLN-R3-rFc protein (human) (UniProt Q13421)", "test": "ELISA, antibody 100 nM"}, "[10]": {"molecular_target": "human MSLN-R3-rFc protein (human) (UniProt Q13421)", "test": "ELISA, antibody 0.032 nM"}, "[11]": {"molecular_target": "human MSLN-FL-his protein (human) (UniProt Q13421)", "sequence (Q13421 other isoform, or with tags, fused parts or gaps)": "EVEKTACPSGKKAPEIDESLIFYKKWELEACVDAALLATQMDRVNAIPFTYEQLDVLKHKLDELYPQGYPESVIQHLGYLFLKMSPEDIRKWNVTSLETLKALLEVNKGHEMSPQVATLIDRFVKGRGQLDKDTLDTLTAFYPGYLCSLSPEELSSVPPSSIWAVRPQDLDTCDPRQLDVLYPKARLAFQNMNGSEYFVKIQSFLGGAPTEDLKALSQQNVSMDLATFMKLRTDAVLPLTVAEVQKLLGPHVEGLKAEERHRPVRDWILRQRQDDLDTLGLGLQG", "test": "ELISA, antibody 0.0001 nM"}, "[12]": {"molecular_target": "human MSLN-FL-his protein (human) (UniProt Q13421)", "test": "ELISA, antibody 100 nM"}, "[13]": {"molecular_target": "monkey MSLN full-length protein (NCBI: XP_028696439.1) on HEK293T cells (monkey)", "test": "FACS on HEK293T-monkey MSLN cells; antibody […]"}, "[14]": {"molecular_target": "monkey MSLN full-length protein (NCBI: XP_028696439.1) on HEK293T cells (monkey)", "test": "FACS on HEK293T-monkey MSLN cells; antibody 4 nM"}, "[15]": {"molecular_target": "monkey MSLN full-length protein (NCBI: XP_028696439.1) on HEK293T cells (monkey)", "test": "FACS on HEK293T-monkey MSLN cells; antibody 20 nM"}, "[16]": {"molecular_target": "monkey MSLN full-length protein (NCBI: XP_028696439.1) on HEK293T cells (monkey)", "test": "FACS on HEK293T-monkey MSLN cells; antibody 0.8 nM"}, "[17]": {"molecular_target": "monkey MSLN full-length protein (NCBI: XP_028696439.1) on HEK293T cells (monkey)", "test": "FACS on HEK293T-monkey MSLN cells; antibody 100 nM"}, "[18]": {"molecular_target": "monkey MSLN full-length protein (NCBI: XP_028696439.1) on HEK293T cells (monkey)", "test": "FACS on HEK293T-monkey MSLN cells; antibody 0.032 nM"}, "[19]": {"molecular_target": "monkey MSLN full-length protein (NCBI: XP_028696439.1) on HEK293T cells (monkey)", "test": "FACS on HEK293T-monkey MSLN cells; antibody 0.0064 nM"}, "[20]": {"molecular_target": "monkey MSLN full-length protein (NCBI: XP_028696439.1) on HEK293T cells (monkey)", "test": "FACS on HEK293T-monkey MSLN cells; antibody 0.00128 nM"}, "[21]": {"molecular_target": "monkey MSLN full-length protein expressed on HEK293T cells (HEK293T-monkey MSLN) (monkey)", "test": "FACS on HEK293T-monkey MSLN cells"}},
  "data": [
    {"substance": "anti-hel-hIgG1 (negative control antibody against hen egg lysozyme)", "values": [
      {"measurement": "OD450", "setting": "[1]", "result": 0.06},
      {"measurement": "OD450", "setting": "[2]", "result": 0.06},
      {"measurement": "OD450", "setting": "[3]", "result": 0.06},
      {"measurement": "OD450", "setting": "[4]", "result": 0.06},
      {"measurement": "OD450", "setting": "[5]", "result": 0.07},
      {"measurement": "OD450", "setting": "[6]", "result": 0.07}
    ]},
    {"substance": "hIgG1 (human IgG1 control antibody)", "values": [
      {"measurement": "OD450 nm", "setting": "[7]", "result": 0.09},
      {"measurement": "OD450 nm", "setting": "[8]", "result": 0.15},
      {"measurement": "OD450 nm", "setting": "[9]", "result": 0.21},
      {"measurement": "OD450 nm", "setting": "[10]", "result": 0.11},
      {"measurement": "OD450 nm", "setting": "[11]", "result": 0.04}
    ]},
    {"substance": "Tab131 (m912, scFv-hIgG1 Fc) (Fc fusion)", "values": [
      {"measurement": "OD450 nm", "setting": "[12]", "result": 0.16},
      {"measurement": "FACS fluorescence intensity", "setting": "[13]", "result": 83},
      {"measurement": "FACS fluorescence intensity", "setting": "[14]", "result": 86},
      {"measurement": "FACS fluorescence intensity", "setting": "[15]", "result": 85},
      {"measurement": "FACS fluorescence intensity", "setting": "[16]", "result": 87},
      {"measurement": "FACS fluorescence intensity", "setting": "[17]", "result": 87},
      {"measurement": "FACS fluorescence intensity", "setting": "[18]", "result": 106},
      {"measurement": "FACS fluorescence intensity", "setting": "[19]", "result": 85},
      {"measurement": "FACS fluorescence intensity", "setting": "[20]", "result": 93}
    ]},
    {"substance": "Tab106 (YP218, hIgG1) (antibody)", "values": [
      {"measurement": "EC50", "setting": "[21]", "result": "< 500", "unit": "pM"},
      {"measurement": "Maximum mean fluorescence intensity", "setting": "[21]", "result": 12400},
      {"measurement": "FACS fluorescence intensity", "setting": "[13]", "result": 313},
      {"measurement": "FACS fluorescence intensity", "setting": "[14]", "result": 2440},
      {"measurement": "FACS fluorescence intensity", "setting": "[15]", "result": 2660},
      {"measurement": "FACS fluorescence intensity", "setting": "[16]", "result": 860},
      {"measurement": "FACS fluorescence intensity", "setting": "[17]", "result": 3290},
      {"measurement": "FACS fluorescence intensity", "setting": "[18]", "result": 142},
      {"measurement": "FACS fluorescence intensity", "setting": "[19]", "result": 100},
      {"measurement": "FACS fluorescence intensity", "setting": "[20]", "result": 90}
    ]}
  ]
}
